For data set [1], the system named is glutathione-S-transferase fusion protein of kinase-inactive ERK1 (GSTERK1K71R). Briefly: Kinase activity of the modified MEK1 peptides, GSTERK1K71R substrate, [γ-32P]ATP. The data set is classed as biochemical. The note with it: after Raf activation; 50 ng modified MEK peptide, 10 μM ATP, room temperature 20 minutes; initial experiments. The protocol: The modified MEK peptides (50 ng) were assayed in 20 mM HEPES (N-2-hydroxyethyl-piperazine-N′-2-ethanesulfonic acid) pH 7.5, 10 mM MgCl2, […] (ethylene glycol bis(2-aminoethyl ether)-N,N,N′N′-tetraacetic acid), 10 μM ATP, with 5 μCi [γ-^32P] ATP. Appropriate samples had 0.5 units of Raf-1 (UBI) added, and the reaction started with the addition of 1 μg GSTERK1 (K71R). The reactions were incubated at room temperature for 20 minutes, then quenched with 5 μl 6×Laemmli sample buffer. The samples were then resolved by SDS-PAGE, and the phosphoproteins visualized by autoradiography. Radiolabel incorporated into ERK was quantitated by excision of the protein band from the gel and counting in a standard scintillation counter. Initial experiments with the modified MEK1 s generated the following specific activities in units of pmol PO4 min-1 mg-1 after Raf activation: WT: 8380.6, WTsPR: 40.1, C1FL: 773.3, ClsPR: 35.9, C2FL: 537.5, C2sPR: 24.1, C3FL: 441.7 and C3sPR: 26.9.

Data set [2] has as its system MAPK. The following applies: correlated with efficacy; cited from earlier work.
The subject of data set [3] is colon carcinomas of both mouse and human origin. The following applies: cited from earlier work.
Data set [4] concerns the target T1, glutathione-S-transferase fusion protein of kinase-inactive ERK1 (GSTERK1K71R), P27361.
T1 chain: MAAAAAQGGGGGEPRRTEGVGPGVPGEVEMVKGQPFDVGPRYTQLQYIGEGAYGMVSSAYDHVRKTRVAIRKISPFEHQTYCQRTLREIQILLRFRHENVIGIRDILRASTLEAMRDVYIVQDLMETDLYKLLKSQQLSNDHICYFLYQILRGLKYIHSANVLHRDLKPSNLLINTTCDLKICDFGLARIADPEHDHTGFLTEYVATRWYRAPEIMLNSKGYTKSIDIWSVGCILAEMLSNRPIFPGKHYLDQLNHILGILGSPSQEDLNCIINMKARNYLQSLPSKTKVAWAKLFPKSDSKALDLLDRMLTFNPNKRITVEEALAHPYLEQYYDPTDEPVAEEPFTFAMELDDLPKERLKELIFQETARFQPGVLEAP

We go through 9 molecules from patent US20030224500A1, “Modified MEK1 and MEK2, crystal of a peptide: ligand: cofactor complex containing such modified MEK1 or MEK2, and methods of use thereof” (priority 2001, published 2003).

Consider “WT: Wild-type human MEK1, full-length peptide of SEQ ID NO: 2, expressed in E. coli”, for which the specific activities in data set [1] is reported as 8380.6 pmol PO4 min-1 mg-1.
Regarding `O=C(NOCC1CC1)c1ccc(F)c(F)c1Nc1ccc(I)cc1Cl` [2-(2-chloro-4-iodo-phenylamino)-N-cyclopropylmethoxy-3,4-difluoro-benzamide], the “levels of MAPK in excised tumors” value in data set [2] is recorded as “reduction in levels of MAPK”. The tumor growth inhibited in data set [3] (mice with colon carcinomas of both mouse and human origin, after treatment with inhibitor) is reported as not above 80%. In addition, in data set [3] (wide range of doses, mice), the toxicity entry is listed as “no signs of toxicity”.
For the molecule “C3FL: NH2-terminally truncated MEK1 having peptide of amino acid residues 42 to 393 of SEQ ID NO: 2”, in data set [1], the specific activities amounted to 441.7 pmol PO4 min-1 mg-1.
On the same count and under the same terms, the result for “C1FL: NH2-terminally truncated MEK1 encoding amino acids 51-393 of SEQ ID NO: 2” reads 773.3 pmol PO4 min-1 mg-1.
Same read-out and setting: the result for “C2FL: NH2-terminally truncated MEK1 having peptide of amino acid residues 62 to 393 of SEQ ID NO: 2” reads 537.5 pmol PO4 min-1 mg-1.

B1: MEK1-C1 (d280-323) (protein)
chain: EAFLTQKQKVGELKDDDFEKISELGAGNGGVVFKVSHKPSGLVMARKLIHLEIKPAIRNQIIRELQVLHECNSPYIVGFYGAFYSDGEISICMEHMDGGSLDQVLKKAGRIPEQILGKVSIAVIKGLTYLREKHKIMHRDVKPSNILVNSRGEIKLCDFGVSGQLIDSMANSFVGTRSYMSPERLQGTHYSVQSDIWSMGLSLVEMAVGRYPIPPPDAKELELMFGCQVKLPSGVFSLEFQDFVNKCLIKNPAERADLKQLMVHAFIKRSDAEEVDFAGWLCSTIGLNQPSTPTHAAGV
Regarding B1, the “specific activity after Raf activation (32P incorporated into ERK)” value (shortened to “specific activity after Raf activation”) in data set [4] is on record as “ClsPR: 35.9”. Besides, in data set [1], the specific activities is listed as 35.9 pmol PO4 min-1 mg-1.

B2: MEK1-C2 (d280-323) (protein)
chain: ELKDDDFEKISELGAGNGGVVFKVSHKPSGLVMARKLIHLEIKPAIRNQIIRELQVLHECNSPYIVGFYGAFYSDGEISICMEHMDGGSLDQVLKKAGRIPEQILGKVSIAVIKGLTYLREKHKIMHRDVKPSNILVNSRGEIKLCDFGVSGQLIDSMANSFVGTRSYMSPERLQGTHYSVQSDIWSMGLSLVEMAVGRYPIPPPDAKELELMFGCQVKLPSGVFSLEFQDFVNKCLIKNPAERADLKQLMVHAFIKRSDAEEVDFAGWLCSTIGLNQPSTPTHAAGV
Consider B2, for which, in data set [4], the “specific activity after Raf activation” value is “C2sPR: 24.1”. The specific activities in data set [1] stood at 24.1 pmol PO4 min-1 mg-1.

B3: MEK1 (wt)(d280-323) (protein)
chain: MPKKKPTPIQLNPAPDGSAVNGTSSAETNLEALQKKLEELELDEQQRKRLEAFLTQKQKVGELKDDDFEKISELGAGNGGVVFKVSHKPSGLVMARKLIHLEIKPAIRNQIIRELQVLHECNSPYIVGFYGAFYSDGEISICMEHMDGGSLDQVLKKAGRIPEQILGKVSIAVIKGLTYLREKHKIMHRDVKPSNILVNSRGEIKLCDFGVSGQLIDSMANSFVGTRSYMSPERLQGTHYSVQSDIWSMGLSLVEMAVGRYPIPPPDAKELELMFGCQVKLPSGVFSLEFQDFVNKCLIKNPAERADLKQLMVHAFIKRSDAEEVDFAGWLCSTIGLNQPSTPTHAAGV
Consider B3, for which, in data set [4], the “specific activity after Raf activation” value is recorded as “WTsPR: 40.1”. Moreover, the specific activities in data set [1] amounted to 40.1 pmol PO4 min-1 mg-1.

B4: MEK1-C3 (d280-323) (protein)
chain: LDEQQRKRLEAFLTQKQKVGELKDDDFEKISELGAGNGGVVFKVSHKPSGLVMARKLIHLEIKPAIRNQIIRELQVLHECNSPYIVGFYGAFYSDGEISICMEHMDGGSLDQVLKKAGRIPEQILGKVSIAVIKGLTYLREKHKIMHRDVKPSNILVNSRGEIKLCDFGVSGQLIDSMANSFVGTRSYMSPERLQGTHYSVQSDIWSMGLSLVEMAVGRYPIPPPDAKELELMFGCQVKLPSGVFSLEFQDFVNKCLIKNPAERADLKQLMVHAFIKRSDAEEVDFAGWLCSTIGLNQPSTPTHAAGV
As to B4, the “specific activity after Raf activation” value in data set [4] is “C3sPR: 26.9”. In addition, the specific activities in data set [1] was 26.9 pmol PO4 min-1 mg-1.
